{"source": "paper PMC9482650", "about": "“Quantitative fragmentomics allow affinity mapping of interactomes” (Nature Communications, 2022)", "assay_in_all_cases": "holdup assay", "set-up_in_all_cases": "key: below the threshold = too weak to quantify, mostly under pKd 3.1 to 4", "key": {"[1]": {"target": "IL16_4, Q14005", "sequence (Q14005 1229-1329)": "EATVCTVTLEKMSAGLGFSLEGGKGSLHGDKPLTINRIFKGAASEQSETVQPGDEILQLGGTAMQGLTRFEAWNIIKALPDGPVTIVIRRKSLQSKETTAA"}, "[2]": {"target": "T1, DFNB31_2, Q9P202", "T1 sequence (Q9P202 274-371, limits assumed, looked up)": "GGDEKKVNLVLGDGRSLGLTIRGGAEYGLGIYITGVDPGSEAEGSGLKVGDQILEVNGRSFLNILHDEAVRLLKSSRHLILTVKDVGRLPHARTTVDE"}, "[3]": {"target": "GRIP2_7, Q9C0E4", "sequence (Q9C0E4 934-1023)": "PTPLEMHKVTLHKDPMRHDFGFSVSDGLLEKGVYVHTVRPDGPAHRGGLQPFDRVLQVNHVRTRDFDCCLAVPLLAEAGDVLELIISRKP"}, "[4]": {"target": "LNX1_3, Q8TBB1", "sequence (Q8TBB1 500-596)": "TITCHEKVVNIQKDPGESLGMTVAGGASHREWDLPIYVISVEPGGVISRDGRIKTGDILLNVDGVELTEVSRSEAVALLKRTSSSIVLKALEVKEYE"}, "[5]": {"target": "T2, DFNB31_1, Q9P202", "T2 sequence (Q9P202 135-233, limits assumed, looked up)": "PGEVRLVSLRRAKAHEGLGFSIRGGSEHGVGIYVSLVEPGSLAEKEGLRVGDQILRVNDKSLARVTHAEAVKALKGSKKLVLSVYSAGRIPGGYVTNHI"}, "[6]": {"target": "GRID2IP_1, A4D2P6", "sequence (A4D2P6 1-87)": "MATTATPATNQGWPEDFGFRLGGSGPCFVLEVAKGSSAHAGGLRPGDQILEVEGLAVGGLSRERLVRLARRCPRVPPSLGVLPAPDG"}, "[7]": {"target": "T3, NHERF3_1, Q5T2W1", "T3 sequence (Q5T2W1 4-100, limits assumed, looked up)": "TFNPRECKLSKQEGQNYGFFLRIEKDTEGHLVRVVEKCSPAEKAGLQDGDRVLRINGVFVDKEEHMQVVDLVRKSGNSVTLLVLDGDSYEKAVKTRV"}, "[8]": {"target": "Inadl_4, Q8NI35", "sequence (Q8NI35 547-651)": "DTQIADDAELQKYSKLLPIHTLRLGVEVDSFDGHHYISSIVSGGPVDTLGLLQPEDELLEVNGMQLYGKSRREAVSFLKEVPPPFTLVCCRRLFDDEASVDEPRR"}, "[9]": {"target": "T4, TIAM2, Q8IVF5", "T4 sequence (Q8IVF5 885-986, limits assumed, looked up)": "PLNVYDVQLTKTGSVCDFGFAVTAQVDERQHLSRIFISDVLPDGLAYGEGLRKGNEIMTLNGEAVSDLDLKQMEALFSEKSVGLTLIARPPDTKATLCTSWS"}, "[10]": {"target": "T5, LRRC7, Q96NW7", "T5 sequence (Q96NW7 1440-1537, limits assumed, looked up)": "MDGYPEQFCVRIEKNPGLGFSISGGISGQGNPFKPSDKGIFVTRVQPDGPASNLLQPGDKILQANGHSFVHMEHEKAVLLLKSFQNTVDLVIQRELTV"}, "[11]": {"target": "T6, ARHGAP21, Q5T5U3", "T6 sequence (Q5T5U3 45-169, limits assumed, looked up)": "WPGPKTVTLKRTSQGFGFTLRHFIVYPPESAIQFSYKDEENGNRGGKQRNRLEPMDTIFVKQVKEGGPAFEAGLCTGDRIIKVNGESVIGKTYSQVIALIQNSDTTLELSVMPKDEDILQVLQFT"}, "[12]": {"target": "HTRA2, O43464", "sequence (O43464 355-458)": "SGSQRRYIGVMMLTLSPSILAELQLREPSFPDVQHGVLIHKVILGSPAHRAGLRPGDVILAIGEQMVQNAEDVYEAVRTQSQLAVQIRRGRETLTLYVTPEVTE"}, "[13]": {"target": "GIPC2, Q8TF65", "sequence (Q8TF65 112-203)": "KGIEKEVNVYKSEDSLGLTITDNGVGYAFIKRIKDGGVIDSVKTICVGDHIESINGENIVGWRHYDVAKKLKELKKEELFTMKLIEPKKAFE"}, "[14]": {"target": "T7, SNTG2, Q9NY99", "T7 sequence (Q9NY99 68-166, limits assumed, looked up)": "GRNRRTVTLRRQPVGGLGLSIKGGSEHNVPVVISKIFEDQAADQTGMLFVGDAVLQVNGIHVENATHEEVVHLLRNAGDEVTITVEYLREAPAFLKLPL"}, "[15]": {"target": "MAGI2_6, Q86UL8", "sequence (Q86UL8 1141-1229)": "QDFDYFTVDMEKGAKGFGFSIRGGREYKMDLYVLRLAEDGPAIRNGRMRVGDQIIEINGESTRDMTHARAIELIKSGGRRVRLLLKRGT"}, "[16]": {"target": "DLG1_2, Q12959", "sequence (Q12959 314-412)": "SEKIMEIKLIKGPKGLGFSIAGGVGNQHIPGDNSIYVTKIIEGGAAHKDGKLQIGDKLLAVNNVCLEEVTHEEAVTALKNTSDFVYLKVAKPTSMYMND"}, "[17]": {"target": "IL16_1, Q14005", "sequence (Q14005 210-306)": "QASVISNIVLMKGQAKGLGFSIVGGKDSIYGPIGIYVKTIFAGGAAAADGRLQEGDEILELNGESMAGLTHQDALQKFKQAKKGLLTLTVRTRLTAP"}, "[18]": {"target": "PTPN3, P26045", "sequence (P26045 505-587)": "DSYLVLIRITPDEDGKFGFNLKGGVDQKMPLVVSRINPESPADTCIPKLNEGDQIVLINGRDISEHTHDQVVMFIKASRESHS"}, "[19]": {"target": "Inadl_3, Q8NI35", "sequence (Q8NI35 359-469)": "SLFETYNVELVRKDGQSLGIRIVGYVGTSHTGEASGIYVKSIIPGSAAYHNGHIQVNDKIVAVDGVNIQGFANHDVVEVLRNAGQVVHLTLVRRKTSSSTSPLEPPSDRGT"}, "[20]": {"target": "T8, APBA2_1, Q99767", "T8 sequence (Q99767 563-664, limits assumed, looked up)": "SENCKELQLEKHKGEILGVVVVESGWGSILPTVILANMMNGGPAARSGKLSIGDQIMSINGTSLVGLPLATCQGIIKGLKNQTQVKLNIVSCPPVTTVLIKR"}, "[21]": {"target": "GRIP2_4, Q9C0E4", "sequence (Q9C0E4 446-548)": "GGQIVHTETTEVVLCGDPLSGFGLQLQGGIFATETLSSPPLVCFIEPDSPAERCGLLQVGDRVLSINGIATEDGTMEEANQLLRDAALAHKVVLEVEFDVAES"}, "[22]": {"target": "PDZRN4_1, Q6ZMN7", "sequence (Q6ZMN7 213-318)": "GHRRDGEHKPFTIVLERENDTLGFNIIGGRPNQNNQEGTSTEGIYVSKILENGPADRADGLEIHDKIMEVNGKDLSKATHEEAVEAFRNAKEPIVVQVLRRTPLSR"}, "[23]": {"target": "MAST2, Q6P0Q8", "sequence (Q6P0Q8 1099-1202)": "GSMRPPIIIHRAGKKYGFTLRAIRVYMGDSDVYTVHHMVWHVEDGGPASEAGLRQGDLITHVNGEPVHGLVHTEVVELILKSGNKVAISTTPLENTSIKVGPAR"}, "[24]": {"target": "Inadl_8, Q8NI35", "sequence (Q8NI35 1425-1530)": "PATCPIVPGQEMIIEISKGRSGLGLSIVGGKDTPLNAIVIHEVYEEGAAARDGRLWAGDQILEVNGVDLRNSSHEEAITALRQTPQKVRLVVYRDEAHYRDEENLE"}, "[25]": {"target": "MAGI3_2, Q5TCQ9", "sequence (Q5TCQ9 398-503)": "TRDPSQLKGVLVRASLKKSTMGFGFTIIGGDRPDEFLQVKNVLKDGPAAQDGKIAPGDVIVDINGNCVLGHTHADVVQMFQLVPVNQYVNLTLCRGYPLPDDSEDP"}, "[26]": {"target": "HTRA1, Q92743", "sequence (Q92743 360-477)": "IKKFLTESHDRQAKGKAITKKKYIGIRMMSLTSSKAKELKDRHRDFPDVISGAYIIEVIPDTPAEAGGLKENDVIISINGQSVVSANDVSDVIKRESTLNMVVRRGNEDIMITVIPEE"}, "[27]": {"target": "TJP1_2, Q07157", "sequence (Q07157 181-274)": "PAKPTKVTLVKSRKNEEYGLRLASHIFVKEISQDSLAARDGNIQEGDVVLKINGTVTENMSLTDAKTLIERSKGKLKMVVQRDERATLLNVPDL"}, "[28]": {"target": "T9, LNX2_2, Q8N448", "T9 sequence (Q8N448 334-432, limits assumed, looked up)": "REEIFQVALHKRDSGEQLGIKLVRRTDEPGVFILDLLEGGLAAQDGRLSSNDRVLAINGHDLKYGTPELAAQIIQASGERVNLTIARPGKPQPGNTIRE"}, "[29]": {"target": "GRIP2_3, Q9C0E4", "sequence (Q9C0E4 238-339)": "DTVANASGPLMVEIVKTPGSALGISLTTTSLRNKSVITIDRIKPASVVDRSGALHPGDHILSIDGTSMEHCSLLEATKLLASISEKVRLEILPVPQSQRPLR"}, "[30]": {"settings": "plain residues with an end cap or a label only (N-terminal biotin on a linker: gsgsgs; C-terminal amide)"}, "[31]": {"settings": "plain residues with an end cap or a label only (N-terminal biotin on a linker: ttds)"}}}
{"binder": "TLSLTDSSVDGIPPYR", "note": "[AXIN1_int, O15169]", "values": [{"measurement": "pKd", "setting": "[1]; [30]", "value": "below the threshold"}, {"measurement": "pKd", "setting": "[2]; [30]", "value": "below the threshold"}, {"measurement": "pKd", "setting": "[3]; [30]", "value": "below the threshold"}, {"measurement": "pKd", "setting": "[4]; [30]", "value": "below the threshold"}, {"measurement": "pKd", "setting": "[5]; [30]", "value": "below the threshold"}, {"measurement": "pKd", "setting": "[6]; [30]", "value": "below the threshold"}, {"measurement": "pKd", "setting": "[7]; [30]", "value": "below the threshold"}, {"measurement": "pKd", "setting": "[8]; [30]", "value": "below the threshold"}, {"measurement": "pKd", "setting": "[9]; [30]", "value": 3.9}, {"measurement": "pKd", "setting": "[10]; [30]", "value": "below the threshold"}, {"measurement": "pKd", "setting": "[11]; [30]", "value": "below the threshold"}, {"measurement": "pKd", "setting": "[12]; [30]", "value": "below the threshold"}, {"measurement": "pKd", "setting": "[13]; [30]", "value": "below the threshold"}, {"measurement": "pKd", "setting": "[14]; [30]", "value": "below the threshold"}, {"measurement": "pKd", "setting": "[15]; [30]", "value": "below the threshold"}, {"measurement": "pKd", "setting": "[16]; [30]", "value": "below the threshold"}, {"measurement": "pKd", "setting": "[17]; [30]", "value": 3.48}, {"measurement": "pKd", "setting": "[18]; [30]", "value": 3.83}, {"measurement": "pKd", "setting": "[19]; [30]", "value": "below the threshold"}, {"measurement": "pKd", "setting": "[20]; [30]", "value": "below the threshold"}, {"measurement": "pKd", "setting": "[21]; [30]", "value": "below the threshold"}, {"measurement": "pKd", "setting": "[22]; [30]", "value": "below the threshold"}, {"measurement": "pKd", "setting": "[23]; [30]", "value": "below the threshold"}, {"measurement": "pKd", "setting": "[24]; [30]", "value": "below the threshold"}, {"measurement": "pKd", "setting": "[25]; [30]", "value": "below the threshold"}, {"measurement": "pKd", "setting": "[26]; [30]", "value": "below the threshold"}, {"measurement": "pKd", "setting": "[27]; [30]", "value": "below the threshold"}, {"measurement": "pKd", "setting": "[28]; [30]", "value": "below the threshold"}, {"measurement": "pKd", "setting": "[29]; [30]", "value": "below the threshold"}]}
{"binder": "IYVPEAQTRL", "note": "[DLGAP4, Q9Y2H0]", "values": [{"measurement": "pKd", "setting": "[1]; [31]", "value": "below the threshold"}, {"measurement": "pKd", "setting": "[2]; [31]", "value": "below the threshold"}, {"measurement": "pKd", "setting": "[3]; [31]", "value": "below the threshold"}, {"measurement": "pKd", "setting": "[4]; [31]", "value": "below the threshold"}, {"measurement": "pKd", "setting": "[5]; [31]", "value": 3.96}, {"measurement": "pKd", "setting": "[6]; [31]", "value": "below the threshold"}, {"measurement": "pKd", "setting": "[7]; [31]", "value": 5.25}, {"measurement": "pKd", "setting": "[8]; [31]", "value": "below the threshold"}, {"measurement": "pKd", "setting": "[9]; [31]", "value": "below the threshold"}, {"measurement": "pKd", "setting": "[10]; [31]", "value": "below the threshold"}, {"measurement": "pKd", "setting": "[11]; [31]", "value": "below the threshold"}, {"measurement": "pKd", "setting": "[12]; [31]", "value": "below the threshold"}, {"measurement": "pKd", "setting": "[13]; [31]", "value": "below the threshold"}, {"measurement": "pKd", "setting": "[14]; [31]", "value": 4.67}, {"measurement": "pKd", "setting": "[15]; [31]", "value": "below the threshold"}, {"measurement": "pKd", "setting": "[16]; [31]", "value": "below the threshold"}, {"measurement": "pKd", "setting": "[17]; [31]", "value": "below the threshold"}, {"measurement": "pKd", "setting": "[18]; [31]", "value": 4.38}, {"measurement": "pKd", "setting": "[19]; [31]", "value": "below the threshold"}, {"measurement": "pKd", "setting": "[20]; [31]", "value": "below the threshold"}, {"measurement": "pKd", "setting": "[21]; [31]", "value": "below the threshold"}, {"measurement": "pKd", "setting": "[22]; [31]", "value": 4.08}, {"measurement": "pKd", "setting": "[23]; [31]", "value": 6.16}, {"measurement": "pKd", "setting": "[24]; [31]", "value": "below the threshold"}, {"measurement": "pKd", "setting": "[25]; [31]", "value": "below the threshold"}, {"measurement": "pKd", "setting": "[26]; [31]", "value": 3.63}, {"measurement": "pKd", "setting": "[27]; [31]", "value": "below the threshold"}, {"measurement": "pKd", "setting": "[28]; [31]", "value": "below the threshold"}, {"measurement": "pKd", "setting": "[29]; [31]", "value": "below the threshold"}]}
{"binder": "SSRTRRETQL", "note": "[HPV16-E6, P03126]", "values": [{"measurement": "pKd", "setting": "[1]; [31]", "value": "below the threshold"}, {"measurement": "pKd", "setting": "[2]; [31]", "value": "below the threshold"}, {"measurement": "pKd", "setting": "[3]; [31]", "value": "below the threshold"}, {"measurement": "pKd", "setting": "[4]; [31]", "value": 3.51}, {"measurement": "pKd", "setting": "[5]; [31]", "value": 3.53}, {"measurement": "pKd", "setting": "[6]; [31]", "value": "below the threshold"}, {"measurement": "pKd", "setting": "[7]; [31]", "value": 5.62}, {"measurement": "pKd", "setting": "[8]; [31]", "value": "below the threshold"}, {"measurement": "pKd", "setting": "[9]; [31]", "value": "below the threshold"}, {"measurement": "pKd", "setting": "[10]; [31]", "value": 3.9}, {"measurement": "pKd", "setting": "[11]; [31]", "value": "below the threshold"}, {"measurement": "pKd", "setting": "[12]; [31]", "value": "below the threshold"}, {"measurement": "pKd", "setting": "[13]; [31]", "value": "below the threshold"}, {"measurement": "pKd", "setting": "[14]; [31]", "value": 4.45}, {"measurement": "pKd", "setting": "[15]; [31]", "value": 3.61}, {"measurement": "pKd", "setting": "[16]; [31]", "value": 5.06}, {"measurement": "pKd", "setting": "[17]; [31]", "value": "below the threshold"}, {"measurement": "pKd", "setting": "[18]; [31]", "value": 5.06}, {"measurement": "pKd", "setting": "[19]; [31]", "value": "below the threshold"}, {"measurement": "pKd", "setting": "[20]; [31]", "value": "below the threshold"}, {"measurement": "pKd", "setting": "[21]; [31]", "value": "below the threshold"}, {"measurement": "pKd", "setting": "[22]; [31]", "value": 5.25}, {"measurement": "pKd", "setting": "[23]; [31]", "value": 5.66}, {"measurement": "pKd", "setting": "[24]; [31]", "value": "below the threshold"}, {"measurement": "pKd", "setting": "[25]; [31]", "value": 5.31}, {"measurement": "pKd", "setting": "[26]; [31]", "value": "below the threshold"}, {"measurement": "pKd", "setting": "[27]; [31]", "value": "below the threshold"}, {"measurement": "pKd", "setting": "[28]; [31]", "value": "below the threshold"}, {"measurement": "pKd", "setting": "[29]; [31]", "value": "below the threshold"}]}
